Data taken from ChEMBL document CHEMBL2074082, “Characterization of the monocarboxylate transporter 1 expressed in Xenopus laevis oocytes by changes in cytosolic pH” (Biochem J, 1998).

Assays:
Format in all cases: functional, cell-based
Details in all cases: Oocyte
[1] = substrate: CC(C)C(=O)C(=O)O; assay: (§1) TP_TRANSPORTER: change in intracellular pH(pHi)value in Xenopus laevis oocytes
[2] = substrate: C[C@@H](O)C(=O)O; assay: as §1
[3] = substrate: CC(C)CC(=O)C(=O)O; assay: as §1
[4] = substrate: CC(=O)C(=O)O; assay: as §1

B1: Monocarboxylate transporter 1 (Rattus norvegicus), P53987 (protein)
chain: MPPAIGGPVGYTPPDGGWGWAVVVGAFISIGFSYAFPKSITVFFKEIEIIFSATTSEVSWISSIMLAVMYAGGPISSILVNKYGSRPVMIAGGCLSGCGLIAASFCNTVQELYFCIGVIGGLGLAFNLNPALTMIGKYFYKKRPLANGLAMAGSPVFLSTLAPLNQAFFGIFGWRGSFLILGGLLLNCCVAGSLMRPIGPQQGKVEKLKSKESLQEAGKSDANTDLIGGSPKGEKLSVFQTVNKFLDLSLFTHRGFLLYLSGNVVMFFGLFTPLVFLSNYGKSKHFSSEKSAFLLSILAFVDMVARPSMGLAANTRWIRPRVQYFFAASVVANGVCHLLAPLSTTYVGFCIYAGVFGFAFGWLSSVLFETLMDLVGPQRFSSAVGLVTIVECCPVLLGPPLLGRLNDMYGDYKYTYWACGVILIIAGLYLFIGMGINYRLVAKEQKAEEKKRDGKEDETSTDVDEKPKKTMKETQSPAPLQNSSGDPAEEESPV
- Km [1]: 1250 µM
- Km [2]: 3500 µM
- Km [3]: 670 µM
- Km [4]: 1010 µM
